Earlier results in article PMC7568816 (Gastroenterology Research and Practice, 2020).

Conditions: due to proteolytic cleavage by dipeptidyl peptidase IV; ref [15]
Procedure: Endogenous GLP-2 is composed of 33 amino acids and has a short half-life of about 7 minutes due to proteolytic cleavage by dipeptidyl peptidase IV [15]. Chemical substitution of the amino acid alanine to […] at position 2 extends the half-life of GLP-2, and this molecule (teduglutide) is approved for the treatment of short bowel syndrome.

In the case of “Endogenous GLP-2: enteroendocrine hormone composed of 33 amino acids”, the half-life is given as “about 7 minutes”.
